# Reference: the nanobody polyreactivity screen of Harvey et al. (2022)
# Assay: yeast display, Sf9 membrane polyspecificity reagent, FACS + sequencing; frameworks hold sequencing errors
# Method in brief: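 Galactose-induced (36–48 hours) yeast carrying a synthetic nanobody display library were exposed to 10% biotinylated, detergent-solubilized Sf9 membrane reagent at 4 °C for 1 hour. FACS followed streptavidin microbead enrichment, using low and high (top ~1%) gates for expression (anti-HA) and reagent binding (streptavidin). Colony PCR, MiSeq 2 × 250 sequencing and CDR-length filtering followed. Labels for polyreactivity reflect the gate of origin.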
row,Sequence,polyreactivity (PSR sort gate)
1,QVQLVESGGGLVQAGGSLRLSCAASGSTLYRYAMGWYRQAPGQERELFATIRSGVNTNYADSVKGRFTISRDNAKNTVYLQMNSLKPEDTAVYYCNARTVYGVYWGRYDYWGQGTQVTVSS,high polyreactivity
2,QVQLVESGGGLVQAGGSLRLSCAASGSTLYSYAMGWYRQAPGKEREFVAAITSDDGSTYYADSVKGRFTISRDNAKNTVYLQMNSLKPEDTAVYYCATAASVEYNYWGQGTQVTVSS,low polyreactivity
3,QVQLVESGGGLVQAGGSLRLSCAASGSTLYYNAMGWYRQAPGKERELVAAITSGGSTSYADSVKGRFTISRDNAKNTVYLQMNSLKPEDTAVYYCAAVFYRRFDYWGQGTQVTVSS,low polyreactivity
4,QVQLVESGGGLVQAGGSLRLSCAASGSTLYYYTMGWYRQAPGKERELVAAINWSGTITYYADSVKGRFTISRDNAKNTVYLQMNSLKPEDTAVYYCNAVYYRQGFDYWGQGTQVTVSS,high polyreactivity
5,QVQLVESGGGLVQAGGSLRLSCAASGSTMRFYAMGWYRQAPGKERELVAAISSSGSSTYYADSVKGRFTISRDNAKNTVYLQMNSLKPEDTAVYYCSGYGYWGQGTQLTVSS,high polyreactivity
6,QVQLVESGGGLVQAGGSLRLSCAASGSTQFGYAIGWYRQAPGKEREFVAAITSGGNTYYADSVKGRFTISLDNAKYTVYLQMNSLKPEDTAVFYCNKRYRSFAARLRGYDYWGQGTQVTVSS,high polyreactivity
7,QVQLVESGGGLVQAGGSLRLSCAASGSTQKYAMGWYRQAPGKERELVAAIRRTGGSTYYADSVKGRFTISRDNAKNTVYLQMNSLKPEDTAVYYCAADPYNYYVSGYDYWGQVTQVTVSS,low polyreactivity
8,QVQLVESGGGLVQAGGSLRLSCAASGSTQTVNVMGWYRQAPGKEREFVAAINDSGSTYYADSVKGRFTISRDNAKNTVYLQMNSLKPEDTAVYYCATYYWLGLSLYDYWGQGTQVTVSS,low polyreactivity
9,QVQLVESGGGLVQAGGSLRLSCAASGSTRRYYAMGWYRQAPGKERELVAAITRLGSTNYADSVKGRFTISRDNAKNTVYLQMNSLKPEDTAVYYCNTRWRYRPYRYRGDGGDYWAQGTQVTVSS,high polyreactivity
10,QVQLVESGGGLVQAGGSLRLSCAASGSTSAPNAMGWYRQAPGKERELVAAISWTGGSTSYADSVKGRFTISRDNAKNTVYLQMNSLKPPDTAVYYCAKRSYGLTRAYSAGNYWGQGTQVTVSS,low polyreactivity
11,QVQLVESGGGLVQAGGSLRLSCAASGSTSASYAMGWYRKAPGKERELVAAISGRGTTTYYADSVKGRFTISRDIAKNSVYLQMNSLKPEDTAVYYCAVYRRGGVEAFLYWGQGTQVTVSS,high polyreactivity
12,QVQLVESGGGLVQAGGSLRLSCAASGSTSDINAMGWYRQAPGKERELVAAITSRSGSTYYADSVKGRFTISRDNAKNTVYLQMNSLKPEDTAVYYCAAEYVRFYWYTSDYWGQGTQVTVSS,low polyreactivity
13,QVQLVESGGGLVQAGGSLRLSCAASGSTSDLYAMGWYRQAPGKERELVAAITWSGDSTYYADSVKGRFTISRDNAKNTVYLQMNSLKPEDTAVYYCNAEYYDYFDYESDYWGQGTQVTVSS,low polyreactivity
14,QVQLVESGGGLVQAGGSLRLSCAASGSTSDTNVMGWYRQPPAKERELVAAISNDDDRTYYADSVKGRFTSSRDNAKNTVYLQMNSVKPEDTAVYYCATADDYPGDDYLEGGYWGQGTQVTVSS,low polyreactivity
15,QVQLVESGGGLVQAGGSLRLSCAASGSTSGSYAMGWYRQAPGKERELVATISWSGGRTYYADSVKGRFTISRDNAKNTVYLQMNSLKPEDTAVYYCAARRYAFRYYGYDYWGQGTQVTVSS,high polyreactivity
16,QVQLVESGGGLVQAGGSLRLSCAASGSTSLYNMGWSRQAPGKERELVAAIDSGSTNYADSVKGRFTISRDNAKNTVYLQMNSLKPEDTAVYYCAADGTNIGVYDRASYRDDYWGQGTQVTVSS,low polyreactivity

row,Sequence,polyreactivity (PSR sort gate)
1,QVQLVESGGGLVQAGGSLRLSCAASGSTSNTMTWDGIDRRLGKKGSWLPPITVSGGGTYYADSVKGRFTISRDNANNTVYLQMNSLKPEDTAVYYCATEYELAIYGDDYWGQGTQVTVSS,low polyreactivity
2,QVQLVESGGGLVQAGGSLRLSCAASGSTSPINAMRWYRQAPGKERELVAVISSSGGRTYYADSVKGRFTISRDNAKNTVYLQMNSLKPEDTAVYYFDKRFSRRQPDYDYWGQGTQVTVSS,high polyreactivity
3,QVQLVESGGGLVQAGGSLRLSCAASGSTSQTYAMGWYRQAPGKERELVASMTRSGVRTYYADSVKGRFTISRDNAKYTVYLQMNSLKPEDTAVYYCAAKYSYGFYRTGYYWGQGTQVTVSS,high polyreactivity
4,QVQLVESGGGLVQAGGSLRLSCAASGSTSQYYAMGWYRQAPGKERELVAVISWSGGSTYYADSVKARFTISRDNAKNTVYLEMNSLKPEDTAVYYCAARYRRRVIATRDYWGQGTQVTVSS,high polyreactivity
5,QVQLVESGGGLVQAGGSLRLSCAASGSTSSLYTMGWYKQAPGKERELVAAITVSGSRTYYADSVKGRFTISRDNAKNTVYLQMNSLKPEDTAVYYCNAYPYYLVRNMDSWGQGTQVTVSS,high polyreactivity
6,QVQLVESGGGLVQAGGSLRLSCAASGSTSVPYTMGWYRQAPGKERELVAAISSSGGTTNYADSVKGRFTISRDNAKNTVYLQMNSLKPEDTAVYYCAAEYYQWVAYSWNEMYYWGQGTQVTVSS,low polyreactivity
7,QVQLVESGGGLVQAGGSLRLSCAASGSTSVQYAKGWYRQAPGKERELVAAIDRSGGSTSYADSVKGRFTISRDNAKNTVYLQMNSLKPEDTAVYYCNADPVRSTYSYDYWGLGTQVTVSS,low polyreactivity
8,QVQLVESGGGLVQAGGSLRLSCAASGSTSVQYAMGWYRQAPGKERELVAAIDRSGGSTSYADSVKGRFTISRDNAKNTVYLQMNSLKPEDTAVYYCNADPVRSTYSYDYWGQGTQVTVSS,low polyreactivity
9,QVQLVESGGGLVQAGGSLRLSCAASGSTSVQYAMGWYRQAPGKERELVAAIDRSGGSTSYADSVKGRFTISRYNAKNTVYLQMNSLKPEDTAVYYCNADPVRSTYSYDYWGQGTQVTVSS,low polyreactivity
10,QVQLVESGGGLVQAGGSLRLSCAASGSTSVVNAMGWYRQAPGKERELVATITRSAGRTYYADSVKGRFTISRDNAKNTVYLQMNSLKPEDTAVSYCAKDTDISTHHSKGRAKSRYDYWGQGTQVTVSS,low polyreactivity
11,QVQLVESGGGLVQAGGSLRLSCAASGSTSWSYAMGWYRQAPGKERELVAAITRTGSTNYADSVKGRFTISRDNAKNTVYLQMNSLKPEDTAVYYCVYATLRYDYWGQGTQVTVSS,low polyreactivity
12,QVQLVESGGGLVQAGGSLRLSCAASGSTSYNAMGWYIQAPGKERELVAAISDGGGSTYYADSVKGRFTISRDNAKNTVYLQMNSLKPEDTAVYYCAADTITGDGYWGQGTQVTVSS,low polyreactivity
13,QVQLVESGGGLVQAGGSLRLSCAASGSTSYVYAMGWYRQAPGKERELVAAISGSGGRTYYADSVKGRFTISRDNAKNTVYLQMNSLKPEDTAVYYCAADYIFRRYPVGGIYDYDYWGQGTQVTVSS,high polyreactivity
14,QVQLVESGGGLVQAGGSLRLSCAASGSTSYWYAMGWYRQAPGKESELVATIRSRGGSTSYADSVKGRFTIARDNAKNTVYLQMNSLKPEDTAVNYCNTRKLYQVDYDYLGQGTQVTVSS,high polyreactivity
15,QVQLVESGGGLVQAGGSLRLSCAASGSTVDRYAMGGYRQAPGKERELVAAITSSGGSTYDADSVKGRFTISRDNAKNTVYVQMNSLKPEDTAVYYCNALITYSTDYWGQGTQVTVSS,low polyreactivity
16,QVQLVESGGGLVQAGGSLRLSCAASGSTVGHYAMGWYRQAPGKERELVAAISVSGGSTYYADSVKGRFTISRDHAKNTVYLQMNSLKPEDTAVYYCAREYAHLSFLSTSSDYWGQGTQVTVSS,low polyreactivity
